The values that follow come from the nanobody polyreactivity screen of Harvey et al. (2022).

The data set is described as follows: yeast display, Sf9 membrane polyspecificity reagent, FACS + sequencing; frameworks hold sequencing errors. The procedure, abridged:
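In a synthetic yeast display library (Saccharomyces cerevisiae BJ5465), nanobody expression was induced with galactose for 36–48 hours. FACS gates were set low and high (top ~1%) using anti-HA fluorescence for expression and streptavidin fluorescence for binding of the Sf9 membrane reagent. Each polyreactivity label is drawn from the gate of origin.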
With “QVQLVESGGGLVQAGGSLRLSCAASGSIFVPYAMGWYRQAPGKERELVAAISSRGGRTYYADSVKGRFTISRDNAKNTVYLQMNSLKPEDTAVYYCNKTAGSHIPRLEYWGQGTQVTVSS”, the “polyreactivity (PSR sort gate)” value is “low polyreactivity”.

Take “QVQLVESGGGLVQAGGSLRLSCAASGSIFVPYAMGWYRQAPGKERELVAAISSSTASTYYADSVKARFTISRDYAKNTVYFQMNCLKPEDTAVYYCNAEQWDYGVRVAHYDYWGQGTQVTVSS”: the “polyreactivity (PSR sort gate)” value is given as “low polyreactivity”.

“QVQLVESGGGLVQAGGSLRLSCAASGSIFVRNAMGWYRQAPGKERELVAAISRSGSSTYYADSVKGRFTISRDIAKNTVYLQMNSLKPEDTAVYYCAARRRYKMDYWGQGTQVTVSS”: the “polyreactivity (PSR sort gate)” value was “high polyreactivity”.

As to “QVQLVESGGGLVQAGGSLRLSCAASGSIFVRYAMGWYRQAPGKERELVASIRSRGDSTYYADSVKGRFTISRDNAKNTVYLQMNSLKPEDTAVYYCAVQRSYVGPRQYNYWGQGTQVTVSS”, the “polyreactivity (PSR sort gate)” value was “high polyreactivity”.

For “QVQLVESGGGLVQAGGSLRLSCAASGSIFVSNAMGWYRQAPGKEREMVAAISQSGGSTYYADSVKGLFTISRDNAKNTVYLQMNSLKPEDTEVYYCATPIRSGFRIYEYWGQGTQVTVSS”, the “polyreactivity (PSR sort gate)” value is “low polyreactivity”.

Consider “QVQLVESGGGLVQAGGSLRLSCAASGSIFVSYAMGWYRQAPGKERELVAAITGRTGSTYYADSVKGRFTISRDNAKNTVYLQMNSLKPEDTAVYYCAARHKQHNRYDYWGHGTQVTVSS”, for which the “polyreactivity (PSR sort gate)” value is reported as “low polyreactivity”.

In the case of “QVQLVESGGGLVQAGGSLRLSCAASGSIFVSYAMGWYRQAPGKERELVAAITGSGASTYYADSVKGRFTISRDNAKNTVYLQMNSLKPEDTAVYFCAAAPGKGPGYDYWGQGTQVTVSS”, the “polyreactivity (PSR sort gate)” value is “low polyreactivity”.

In the case of “QVQLVESGGGLVQAGGSLRLSCAASGSIFVSYAMGWYRQAPGKERELVAAITRSGGSTYYADSVKGRFTISRDNAKNTLYLQMNSLKPEDTAVYYCAARSYLGAYRRYYWGQGTQVTVSS”, the “polyreactivity (PSR sort gate)” value was “high polyreactivity”.

For the sequence “QVQLVESGGGLVQAGGSLRLSCAASGSIFVSYAMGWYRQAPGKERELVAAITRSGGSTYYADSVKGRFTISRDNAKNTVYLQMNSLKPEDTAVYYCAARSYLGAYRRYYWGQGTQVTVSS”, the “polyreactivity (PSR sort gate)” value was “high polyreactivity”.

Consider “QVQLVESGGGLVQAGGSLRLSCAASGSIFVSYAMGWYRQAPGKERELVAVISYSGVSTYYADSVKGRFTISRDNAKNTVYLQMYSLKPEDTAVYYCATRQYGTRHILKYNYWGQGTQVTVSS”, for which the “polyreactivity (PSR sort gate)” value is “low polyreactivity”.

Take “QVQLVESGGGLVQAGGSLRLSCAASGSIFVSYTMGWYRQAPGKERELVAAITRSGGSTYYADSVKGRFTISRDNAKNTVYLQMNSLKPEDTAVYYCARVSRRGPGYTTLYSRYDYWGQVTQVTVSS”: the “polyreactivity (PSR sort gate)” value is reported as “low polyreactivity”.

For the sequence “QVQLVESGGGLVQAGGSLRLSCAASGSIFVTYAMGWYRQAPGKERDLVATITNVGRTNYADSVKGRFTISRDNAKNTVYLQMNSLKPEDTAVYYCNADGAPGYPGAYDYWGQGTQVTVSS”, the “polyreactivity (PSR sort gate)” value was “low polyreactivity”.

As for “QVQLVESGGGLVQAGGSLRLSCAASGSIFVTYAMGWYRQAPGKERELVASISWRGVSTRYADSVKGRFTISRDNAKNTVYLQMNSLKPEDTAVYYCAARVTSHMYYWGQGTQVTVSS”, the “polyreactivity (PSR sort gate)” value is listed as “high polyreactivity”.

Regarding “QVQLVESGGGLVQAGGSLRLSCAASGSIFVTYAMGWYRQAPWKDWELVAAISTSGGSTYADSVKGRFTISRDNAKNTVYLQMNSLKPVDTAVYYCNADDPGYAVPWYWFKYDYWGQGTQVTVSS”, the “polyreactivity (PSR sort gate)” value was “low polyreactivity”.

With “QVQLVESGGGLVQAGGSLRLSCAASGSIFVVNAMGWYRQAPGKERELVAAITFSGDSTYYADSVKGRFTISRDNAKNTVYLQMNSLKPEDTAVYYCAAARRSSHWFTYDYWGQGTQVTVSS”, the “polyreactivity (PSR sort gate)” value is on record as “high polyreactivity”.

Turning to “QVQLVESGGGLVQAGGSLRLSCAASGSIFVVYAMGWYRQAPGKEREMVAVISNGGTTNYADSVKGRFTISRDNAKNTVYLQMNSLKPEDTAVYYCAKASSRRYWTIRDGDYWGQGTQVTVSS”, the “polyreactivity (PSR sort gate)” value is “low polyreactivity”.

For the sequence “QVQLVESGGGLVQAGGSLRLSCAASGSIFVWNALGWYRQAPGTERELVAAISYTDGSTYYADSVKGRFTISRDNATNTVYFQMNSLKPEVTAVYYCNAYPASRGPGNPLDDYWGQGTQVTVSS”, the “polyreactivity (PSR sort gate)” value is reported as “low polyreactivity”.

For the sequence “QVQLVESGGGLVQAGGSLRLSCAASGSIFVWNAMGWYRPAPGKERELVAAIRSDDDSTYYADSVKGRFTISRDNAKNTVYLQMNSLKPEDTAVITALVDSPTFSHVKPWDGGDYWGQGTQVTVSS”, the “polyreactivity (PSR sort gate)” value was “low polyreactivity”.

Turning to “QVQLVESGGGLVQAGGSLRLSCAASGSIFVWYAMGWYRQAPGKERELVAAITSSGGSTYYADSVKGRFTISRDYAKNTVYLQLNSLKPEDTAVYYCAKTPSRRGYYWGQGTQVTVSS”, the “polyreactivity (PSR sort gate)” value is recorded as “low polyreactivity”.

Consider “QVQLVESGGGLVQAGGSLRLSCAASGSIFVWYAMGWYRQAPGKERELVAVISYGGDRTSYADSVKGRFTISRDNAKNTVYLQMNSLKPEDTAVYYCAARPFYRGYYYWGQGTQVTVSS”, for which the “polyreactivity (PSR sort gate)” value is listed as “high polyreactivity”.

As to “QVQLVESGGGLVQAGGSLRLSCAASGSIFVWYDMGWYRQAPGKERELVATISLSGVSTYYADSVKGRFTISRDNAKNPVYLQLNSLKPEDTAVYYCAADFVEQGEDDYWGQGTQVTVSS”, the “polyreactivity (PSR sort gate)” value is listed as “low polyreactivity”.

On to “QVQLVESGGGLVQAGGSLRLSCAASGSIFVYNAMGWYRQAPGKEMELVASITWSGGRTYYADSVKGRFTISRDHAKNTVYLQMNSLKPEDTAVYYCNKRQYSRTFRYGYWGQGTQVTLSS”, for which the “polyreactivity (PSR sort gate)” value is recorded as “high polyreactivity”.

Consider “QVQLVESGGGLVQAGGSLRLSCAASGSIFVYNAMGWYRQAPGKERELVASITWSGGRTYYADSVKGRFTISRDNAKNTVYLQMNSLKPEDTAVYYCNVRQGGPTVTWEYDYWGQGTQVTVSS”, for which the “polyreactivity (PSR sort gate)” value is “high polyreactivity”.

Consider “QVQLVESGGGLVQAGGSLRLSCAASGSIFVYNDMGGYRQAPGKERELVAGIDWSGDRTYADSVKGRFTISRDNAKNTVYLQMNSLKPEDTAVYYCIADEWRWDEILPYAVDYWGQGTQVTVSS”, for which the “polyreactivity (PSR sort gate)” value is “low polyreactivity”.

As for “QVQLVESGGGLVQAGGSLRLSCAASGSIFVYNDMGWYRQAPGKERELVAGIDWSGDRTYADSVKGRFTISRDNAKYTVYLQMNSLKPEDTAVYYCNAERYPYRLRARKLDYWGQGTQVTVSS”, the “polyreactivity (PSR sort gate)” value is on record as “low polyreactivity”.

“QVQLVESGGGLVQAGGSLRLSCAASGSIFVYNVMGWYRQAPGKERELVAAISKTAGRTYYEDSVKGRFTISRDNAKNTVYLQMNSLKPEDTAVYYFAVGNKRDAYYQYSSYGYWGQGTQVTVSS”: the “polyreactivity (PSR sort gate)” value is reported as “low polyreactivity”.

Consider “QVQLVESGGGLVQAGGSLRLSCAASGSIFVYYAMGWYRPAPGKERELVASISRGGTSTYYADSVKGRFTISRDNAKNTVYFQMNSLKPEDTAVYYCAAQPYRTGTYDYWGQGTQVTVSS”, for which the “polyreactivity (PSR sort gate)” value is given as “low polyreactivity”.

“QVQLVESGGGLVQAGGSLRLSCAASGSIFVYYAMGWYRQAPGKDRELVAAITTSGGSTYYADSVKGRFTISRDNAKNTVYLQMNSLKPEDTAVYYCAAVLLAWYWSYSVPWAYDYWGQGTQVTVTS”: the “polyreactivity (PSR sort gate)” value is “low polyreactivity”.

With “QVQLVESGGGLVQAGGSLRLSCAASGSIFVYYAMGWYRQAPGKERELVAAITETGGDTYYADSVKGRFTISRDNAKNTVYLQMNSLKPEDTAVYYCNTVRRSYWSWSTENSDYWGQGTQVTVSS”, the “polyreactivity (PSR sort gate)” value was “low polyreactivity”.

As to “QVQLVESGGGLVQAGGSLRLSCAASGSIFVYYAMGWYRQAPGKERELVASISESDGSTSYADSVKGRFTISRDNAKNTVYLQMNSLKPEDTAVYYCAADPYFFWYSPSFDYWGQGSQVTVSS”, the “polyreactivity (PSR sort gate)” value is “low polyreactivity”.

“QVQLVESGGGLVQAGGSLRLSCAASGSIFVYYAMRWYRQAPGKERELVAAITIGASTDYADSVKGRFTISRDNAKNTVYLQMNSLKPEDTAVYYCAADLYYGDYRTLPKPDEYDYWGQGTQVTVSS”: the “polyreactivity (PSR sort gate)” value is listed as “low polyreactivity”.

Take “QVQLVESGGGLVQAGGSLRLSCAASGSIFVYYTMGWYRQAPGKERELVAAISFSGGSTYADSVKGRFTISRDNAKNTVYLQMNSLKPEDTAVYFCNADRWLYTPSKFVEMDYWGQGTQVTVSS”: the “polyreactivity (PSR sort gate)” value is “low polyreactivity”.

Turning to “QVQLVESGGGLVQAGGSLRLSCAASGSIFWANAMGWYRQAPGKERELVAAISSSGGGTYYADSVKGRFTISRDNAKNTVYLQMNSLKPVDTAVYYCNKLRLDYYEQGDYWGQGSQVTVSS”, the “polyreactivity (PSR sort gate)” value is “high polyreactivity”.

On to “QVQLVESGGGLVQAGGSLRLSCAASGSIFWAYTMGWYRQAPGKERELVAAISASGGSTYYADSVKGRFTISRDNAKNTVYLQMNSLKPEDTAVYYCAAVYDLGYYGPIWAIVLDDYWGQGTQVTVSS”, for which the “polyreactivity (PSR sort gate)” value is “low polyreactivity”.

With “QVQLVESGGGLVQAGGSLRLSCAASGSIFWGNAMGWYRQAPGKERELVAAIDWSGGSTYYADSVKGRFTISRDNAKNTVYLQMNSLKPEDTAVYYCAADYLGGGDVGFDYWGQGTQVTVSS”, the “polyreactivity (PSR sort gate)” value is reported as “low polyreactivity”.

For the sequence “QVQLVESGGGLVQAGGSLRLSCAASGSIFWGNAMGWYRQAPGKERELVAAITGSGGSSYYADSVKGRFTISRDNAKNRVYLLMNSVKPEDTAVYYCADLFRTFYYWGQGTQVTVSS”, the “polyreactivity (PSR sort gate)” value is given as “high polyreactivity”.

On to “QVQLVESGGGLVQAGGSLRLSCAASGSIFWGYAMGWYRQAPGKERELVATISWTGGSTYYADSVKGRFTISRDNAKNTVYLQMNSLKPEDTAVYYGAKVIIHYYYVVNLVDVDYWGQGTQVTVSS”, for which the “polyreactivity (PSR sort gate)” value is on record as “low polyreactivity”.

Take “QVQLVESGGGLVQAGGSLRLSCAASGSIFWIYAMGWYRQAPGKERELVARITWTGGRTYYADSVKGRFTISRDNAKNTVYLQMNSLKPEDTAVYYCAVTSYRQRGAFDYWGQGSQVTVSS”: the “polyreactivity (PSR sort gate)” value is given as “high polyreactivity”.

For “QVQLVESGGGLVQAGGSLRLSCAASGSIFWLYAMGWYRQAPGKERELVAAIDSGDSTKYADSVKGRFTISRDNAKNTVYLQMNSLKPEDTAVYYCNVRLGDRFFRHDYWGQGTQVTVSS”, the “polyreactivity (PSR sort gate)” value is recorded as “low polyreactivity”.

“QVQLVESGGGLVQAGGSLRLSCAASGSIFWLYAMGWYRQAPGKERELVAAMSWSGTSTNYADSVKGRFTISRDIAKNTVYLQMNRLKPEDTAVYYCAKRWNNQKLFGYEEEYDYWGQGTQVTGSS”: the “polyreactivity (PSR sort gate)” value is “low polyreactivity”.
